# Measured values from patent US20250011431A1 (ADIVO, published 2025).
# Substitutions are numbered along the chain they refer to.
# B1: CAN1005019 IgG (antibody, V domains shown)
# VH: EVQLVESGGDLVKPAGSLRLSCVASGFTFSSYSMSWVRQAPEKGLQLVAWIDAYAGVTSYANAVKGRFTISRDNAKNTVYLQMNSLRAEDTAMYYCARGQGGRSSFDYWGQGTLVTVSS
# VL: SYVLTQLPSVSVTLRQTARITCGGDSIGSKNVYWYQQKLGQAPVLIIYDDSSRPSGIPERFSGANSGNTATLTISGALAEDEADYYCQSYDIPLTGTVFGGGTQLTVLG
# notes: also called biotinylated CAN1005019
# B2: CAN1005016 Fab (Fab, V domains shown)
# VH: EVQLVESGGDLVKPGGTLRLSCVASGFTFSSYDMSWVRQSPGKGLQWVAVIWNTGSHAYYADAVKGRFTISRDNAKNTLYLQMNSLRAEDTAVYYCARGRQPRLVGTLDLWGQGTLVTVSS
# VL: SYVLTQLPSVSVTLRQTARITCGGDSIGSKNVYWYQQKLGQAPVLIIYDDSSRPSGIPERFSGANSGNTATLTISGALAEDEADYYCQTYDSLVDVGVFGGGTQLTVL
# B3: CAN1005001 IgG (antibody, V domains shown)
# VH: B1 VH with W50G, D52S, A53S, Y54G, A55G, G56S, V57S, S59Y, A61T, N62D
# VL: B2 VL with T89S, D91A, S92M, L93P, V94L, D95T, V96G, G97T
# notes: also called initial clone CAN1005001; parental clone CAN1005001
# B4: CAN1005016 IgG (antibody, V domains shown)
# VH: B2 VH
# VL: B1 VL with S89T, I92S, P93L, L94V, T95D, G96V, T97G
# notes: also called biotinylated CAN1005016
# B5: CAN1005001L1 Fab (Fab, V domains shown)
# VH: B1 VH with W50G, D52S, A53S, Y54G, A55G, G56S, V57S, S59Y, A61T, N62D
# VL: B2 VL with T89S, S92I, L93P, V94L, D95T, V96G, G97T
# notes: Fab from bacterial lysate
# B6: CAN1005010H2 (as captured in the GCI measurement of anti-PD-L1 IgGs) (antibody, V domains shown)
# VH: B2 VH
# VL: B2 VL with Q88S, V94L
# notes: also called parental clone CAN1005010H2
# B7: CAN1005001 Fab (Fab, V domains shown)
# VH: B1 VH with W50G, D52S, A53S, Y54G, A55G, G56S, V57S, S59Y, A61T, N62D
# VL: B2 VL with T89S, D91A, S92M, L93P, V94L, D95T, V96G, G97T
# notes: also called parental clone CAN1005001
# B8: CAN1005001H3 Fab (Fab, V domains shown)
# VH: B1 VH
# VL: B2 VL with T89S, D91A, S92M, L93P, V94L, D95T, V96G, G97T
# notes: Fab from bacterial lysate
# B9: CAN1005010L1 Fab (Fab, V domains shown)
# VH: B2 VH with T54E, H57S, A58T
# VL: B2 VL
# notes: Fab from bacterial lysate
# B10: CAN1005010H2 Fab (Fab, V domains shown)
# VH: B2 VH
# VL: B2 VL with Q88S, V94L
# notes: Fab from bacterial lysate
# B11: CAN1005019 Fab (Fab, V domains shown)
# VH: B1 VH
# VL: B2 VL with T89S, S92I, L93P, V94L, D95T, V96G, G97T
# Assays:
# [1] = molecular target: T1, cPD-L1_hFc (canine PD-L1 Fc-fusion protein; Sino Biological Cat. 70110-D02H) (canine; human); test: binding ELISA, IgG titrated on plate-bound cPD-L1_hFc
# T1 construct: Bought product; also called canine PD-L1_hFc; cPD-L1 fusion protein; not shown: human Fc tag (hFc)
# T1 chain: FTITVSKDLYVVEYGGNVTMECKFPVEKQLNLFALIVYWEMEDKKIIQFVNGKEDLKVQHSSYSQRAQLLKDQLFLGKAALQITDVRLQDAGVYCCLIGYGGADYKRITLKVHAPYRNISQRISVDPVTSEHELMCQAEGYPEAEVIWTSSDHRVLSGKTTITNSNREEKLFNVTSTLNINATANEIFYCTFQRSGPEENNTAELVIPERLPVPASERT
# Description: cPD-L1 fusion proteins were directly immobilized on the plate, commonly in a concentration of 57 nM. For binding ELISA, black 384 well Maxisorp plates were used. This was performed overnight at 4° C. The coated plates were washed 3× with PBS-T, followed by blocking with Chemiblocker (Merck-Millipore; 2170) for 1 h at RT. After blocking, dilution series of the respective antibodies were added to the plate usually covering concentrations ranging from the single digit ng/ml to the single-digit ug/ml range. Antibodies were also incubated for 1 h at RT, followed by washing and by addition of suitable detection antibodies coupled to HRP. Measurement was carried out as described above for the Screening ELISA.
# canine PD-L1 on cells = molecular target: T2, canine PD-L1 on cells (canine); test: flow cytometry on HEK293c18 cells transfected with canine PD-L1
# T2 construct: also called wildtype canine PD-L1 on transfected HEK293c18 cells
# T2 chain: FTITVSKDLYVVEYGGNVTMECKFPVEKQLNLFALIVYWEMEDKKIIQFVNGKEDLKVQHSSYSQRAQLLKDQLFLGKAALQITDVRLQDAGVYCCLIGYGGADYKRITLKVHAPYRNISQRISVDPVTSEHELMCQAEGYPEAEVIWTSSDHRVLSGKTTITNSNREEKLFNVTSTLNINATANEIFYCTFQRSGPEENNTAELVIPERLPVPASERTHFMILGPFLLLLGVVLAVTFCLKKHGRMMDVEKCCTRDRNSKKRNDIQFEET
# Description: HEK293c18 cells were seeded in 6 well plates at a density of 1×10⁶ cells/well in DMEM+10% FCS. The next day, the transfection mix was prepared. […] Per well, 2 μg of the plasmid encoding for wildtype canine PD-L1 was diluted in 200 μl jetPRIME buffer. The solution was mixed and 4 μl of the transfection reagent was added, followed by mixing and centrifuging of the mixture. Then, the medium of the adherent cells is replaced by fresh medium and the transfection mix is carefully added onto the cells. The plate containing the transfected cells is placed back in the incubator and incubated for 24 h.
# The cells were washed once by addition of 200 μl per well PBS/EDTA and centrifugation at 1500 rpm for 5 min. The supernatant was carefully decanted by holding the plate upside down above a waste and dried on a paper towel. Then, the cells were stained for dead cells with the dye Zombie violet (Biolegend; Cat.: 423114) diluted 1:500 in PBS/EDTA for 15 minutes at 4° C. in the dark. Subsequently, cells were washed with FACS Buffer (PBS/EDTA+2% FCS) as described above. Titration series of CAN1005016 and CAN1005019 usually ranging from 10 ng/ml to 10 μg/ml were prepared diluted in FACS buffer and added to the respective wells for a 30-minute incubation at 4° C. in the dark. […] Finally, the cells were washed again 3× and then resuspended in 200 μl FACS buffer and measured directly.
# [2] = molecular target: T1, cPD-L1_hFc (canine PD-L1 Fc-fusion …); test: ELISA ligand-binding inhibition, cPD-L1_hFc on the plate, competitor PD-1-Biotin (206 nM)
# Description: cPD-L1 fusion proteins were directly immobilized on the plate overnight at 4° C., commonly in a concentration of 57 nM. For […] ELISA, black 384 well Maxisorp plates were used. The coated plates were washed 3× with PBS-T, followed by blocking with Chemiblocker (Merck-Millipore; 2170) for 1 h at RT. The blocked plates were washed 3× with PBS-T, followed by addition of titration-series of blocking antibodies and incubation for 1 h at RT. Subsequently plates were washed again 3× with PBS-T and PD-1-Biotin (1× biotinylated via Avi-tag; Sinobiological Cat.: 70109-D27H-B) was added and incubated for 1 h at RT, usually in a concentration of 4 μg/ml (206 nM). This concentration of canine PD-1-Biotin was previously identified as optimal by titrating the binding of PD-1-Biotin towards immobilized canine PD-L1_hFc. After incubation with the ligand PD-1, the plate was washed 3× with PBS-T and suitable detection reagent for the biotinylated PD-1, usually Streptavidin-HRP, was added and incubated for 1 h at RT. Subsequently, the plate was washed 5×, followed by addition of Quanta Blue and measurement as described above for the screening ELISA.
# PD-L1-his [3] = molecular target: T3, PD-L1-his (canine); test: grating-coupled interferometry (waveRAPID): antibody captured on PAG chip, PD-L1-his as analyte, 1:1 fit, 25 C
# T3 construct: also called monovalent PD-L1 antigen; not shown: his tag
# T3 chain: T1 chain
# Description: (§1) To further characterize the kinetic properties of our candidates CAN1005016 and CAN1005019, the KD of our candidates was quantified using waveRAPID in a GCI system according to the procedure described below. The binding kinetics study was performed on the Creoptix® WAVEdelta system using a PAG sensor chip (Creoptix, a Malvern Panalytical brand). All experiments were performed with HBS-EP (Cytiva) as running buffer, at a temperature of 25° C. and sampling rate of 10 Hz. Data acquisition and evaluation were performed using WAVEcontrol software version 4.5.13.
# (§2) Prior to ligand capturing, the sensor chip was conditioned by a 180 sec injection of 100 mM sodium borate, 1 M NaCl, pH 9 (Xantec). Antibody was diluted to 1 μg/ml in HBS-EP and captured to a density of =300 pg/mm2 on flow channel 2. Flow channel 1 was left blank to serve as a reference surface. For collection of kinetic data, PD-L1-his was diluted to 200 nM in HBS-EP and injected over ligand and reference surfaces in repeated analyte pulses of increasing duration (waveRAPID) at flowrate of 60 μl/min. PD-L1-his was injected for a total duration of 180 sec, followed by measuring complex-dissociation in running buffer for 30 min. Blank injections were performed to enable double referencing of the data and a 0.5% DMSO pulse injection (running buffer with 0.5% DMSO) was used as an analyte concentration modulation calibration curve. Data were corrected (X and Y offset, DMSO calibration, double referencing) and fitted with a simple 1:1 interaction model (global fit) to obtain kinetic parameters.
# [4] = molecular target: T4, biotinylated cPD-L1_hFc (Sino Biological Cat. 70110-D02H-B) (canine; human, biotinylated (sites not given)); test: Fab-capture ELISA: Fab on anti-canine Fab capture antibody, cPD-L1_hFc-Biotin titrated
# T4 construct: also called cPD-L1-biotin; cPD-L1_hFc-Biotin; not shown: human Fc tag (hFc)
# T4 chain: T1 chain
# Description: The screening was performed as described in Example 4. Fab binders of CAN1005016 and CAN1005019 were loaded onto plate-bound anti-canine Fab capture antibody, followed by addition of titration series of cPD-L1_hFc-Biotin. Detection was performed with Streptavidin-HRP. The parental clone CAN1005001 was included as a control. Curve fits and EC50 values were analyzed with GraphPad Prism.
# [5] = molecular target: T1, cPD-L1_hFc (canine PD-L1 Fc-fusion …); test: binding ELISA, cPD-L1 fusion protein on the plate
# PD-L1-his [6] = molecular target: T3, PD-L1-his; test: grating-coupled interferometry, KD compared with that of CAN1005010H2
# Description: as §1
# as §2, with “Data were corrected (X and Y offset, DMSO calibration, double referencing) and fitted with a simple 1:1 interaction model (global fit) to obtain kinetic parameters.” left out
# [7] = molecular target: T4, biotinylated cPD-L1_hFc (Sino …); test: Fab-capture ELISA: Fab from lysate on anti-canine Fab antibody, cPD-L1-biotin titrated
# Description: To identify derivatives with a higher affinity, an alternative ELISA setup was used for screening to better normalize BEL expression levels and differentiate Fabs more efficiently with respect to their affinity. In contrast to the previous screening ELISA setup, a Maxisorp plate was coated over night with an anti-canine Fab antibody in a low density of 1 μg/ml. Coated plates were washed 3× with PBS-T, followed by loading with diluted BELs. After the BEL incubation and washing with PBS-T, dilution series of cPD-L1-biotin was added to the plate. Detection was performed with Streptavidin-HRP, followed by more stringent 5× washing with PBS-T and Quanta Blue substrate addition. Measurement was performed as described before (Example 1).
binder,measurement,setting,value
B1,EC50,[1],49 pM
same,EC50,canine PD-L1 on cells,11800 pM
same,IC50,[2],1320 pM
same,Kd,PD-L1-his [3],1700 pM
B2,EC50,[4],87 pM
B3,EC50,[5],400 pM
same,IC50,[2],4600 pM
B4,EC50,[1],76 pM
same,EC50,canine PD-L1 on cells,10500 pM
same,fold improvement in affinity against CAN1005010H2,PD-L1-his [6],> 3 fold
same,IC50,[2],950 pM
same,Kd,PD-L1-his [3],770 pM
B5,EC50,[7],362 pM
B6,Kd,PD-L1-his [3],2800 pM
B7,EC50,[7],820 pM
B8,EC50,[7],97 pM
B9,EC50,[7],139 pM
B10,EC50,[7],121 pM
B11,EC50,[4],138 pM
